In PMC7170509, “Substrate recognition and ATPase activity of the E. coli cysteine/cystine ABC transporter YecSC-FliY” (The Journal of Biological Chemistry, 2020):

Experiments:
[1] = target: T1, FliY (Escherichia coli, UniProt P0AEM9); assay: isothermal titration calorimetry; assay type: binding
T1 construct: gene tcyJ; C-terminal His6 tag (pET21b); expressed in E. coli BL21-Gold(DE3), purified from osmotic shock extract; monomer

[2] = target: T1, FliY; assay: nanoDSF thermal shift; assay type: binding; settings: 30 μM FliY, 200 μM ligand; 50 mM Tris-HCl pH 7.5, 250 mM NaCl
[3] = target: T2, YecSC, the E. coli cysteine/cystine ABC transporter (YecS transmembrane domain and YecC nucleotide-binding … (E. coli, UniProt P0AFT2 1-222; P37774 1-250); assay: cell-based or functional assay
T2 sequence (looked up) 1: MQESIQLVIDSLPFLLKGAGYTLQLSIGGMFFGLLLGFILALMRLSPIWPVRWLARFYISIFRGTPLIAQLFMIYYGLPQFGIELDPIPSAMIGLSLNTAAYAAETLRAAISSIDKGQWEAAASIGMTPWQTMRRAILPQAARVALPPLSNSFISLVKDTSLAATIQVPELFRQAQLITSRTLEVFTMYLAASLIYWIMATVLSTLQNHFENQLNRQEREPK
T2 sequence (looked up) 2: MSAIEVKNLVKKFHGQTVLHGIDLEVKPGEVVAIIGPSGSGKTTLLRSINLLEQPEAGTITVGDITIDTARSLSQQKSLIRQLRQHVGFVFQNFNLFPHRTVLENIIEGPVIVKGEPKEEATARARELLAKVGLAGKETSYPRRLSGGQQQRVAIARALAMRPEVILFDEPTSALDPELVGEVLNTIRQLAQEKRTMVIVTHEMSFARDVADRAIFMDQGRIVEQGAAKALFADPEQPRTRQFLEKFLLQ

Molecule: N[C@H](CS)C(=O)O [D-cysteine]
- Kd [1]: 10 ± 3.4 µM

Molecule: N[C@@H](CS)C(=O)O [L-cysteine]
- Kd [1]: 14.4 ± 2.4 µM

Molecule: N[C@@H](CSSC[C@H](N)C(=O)O)C(=O)O [L-cystine]
- dTm [2]: the L-enantiomer of its oxidized dimeric form (Cys-S-S-Cys, cystine) also led to thermostabilization of FliY
- Kd [1]: 9.3 ± 2.8 µM

B1: FliY, the substrate-binding protein (SBP) of the E. coli YecSC-FliY cysteine/cystine ABC import system (natural protein, UniProt P0AEM9 30-266, looked up)
chain: DEGLLNKVKERGTLLVGLEGTYPPFSFQGDDGKLTGFEVEFAQQLAKHLGVEASLKPTKWDGMLASLDSKRIDVVINQVTISDERKKKYDFSTPYTISGIQALVKKGNEGTIKTADDLKGKKVGVGLGTNYEEWLRQNVQGVDVRTYDDDPTKYQDLRVGRIDAILVDRLAALDLVKKTNDTLAVTGEAFSRQESGVALRKGNEDLLKAVNDAIAEMQKDGTLQALSEKWFGADVTK
- apparent Km for FliY of the stimulation of ATP hydrolysis by 1 μM YecSC (0.25–20 μM FliY), in the absence of substrate (apo FliY) [3]: 10.3 µM
- apparent Km for FliY of the stimulation of ATP hydrolysis by 1 μM YecSC (0.25–20 μM FliY), in the presence of 100 μM L-cystine (holo FliY) [3]: 1.1 µM
- interaction ratio from the Michaelis–Menten fit of initial ATPase rates of YecSC against FliY concentration, without and with L-cystine [3]: 1 FliY:YecSC
- stimulation of the ATPase activity of YecSC by FliY with L-cystine, over basal activity [3]: ~11 fold
- stimulation of the ATPase activity of YecSC by substrate-free apo FliY, over basal activity [3]: ~3 fold
